Source: US20240174727A1, “LONG-ACTING NATRIURETIC PEPTIDES AND USES THEREOF” (Eli Lilly and Company, priority 2022, published 2024)
Positions count from the first letter of the chain named. Numbered stars: 1 amine (or outer) side, 2 acyl side, 3 side chain; on linkers, the order of the positions; unused ones are H or OH. Bridge positions count the residues as written; N and C are the ends. Square brackets hold non-standard residues; d marks the D form. * marks the point of attachment. C20 diacid = O=C(O)CCCCCCCCCCCCCCCCCCC(=O)*; γGlu = O=C(O)[C@H](CCC(=O)[*:2])N[*:1]; 4Pal = N[C@@H](Cc1ccncc1)C(=O)O

B1: Example 6 (peptide)
peptide: EKXRSSCFGGKIDRIGHYSGLGCPSFRHGSPSSGAPPPS
modifications: HOOC-(CH2)18-CO-(γGlu)-EKEKEKG-PEG24-EK-βAla-RSS[CFGGKIDRIGHYSGLGC]PSFRHGSPSSGAPPPS-NH2; thioacetal linkage between the bracketed Cys
B2: Example 98 (peptide)
peptide: B1 peptide with K11R
modifications: HOOC-(CH2)18-CO-(γGlu)-EKEKEKG-(AEEA)6-EK-βAla-RSS[CFGGRIDRIGHYSGLGC]PSFRHGSPSSGAPPPS-NH2; thioacetal linkage between the bracketed Cys
B3: Example 96 (peptide)
peptide: B1 peptide with E1S, K2X, X3R, K11R
modifications: HOOC-(CH2)18-CO-(γGlu)-EKEKEKG-(AEEA)6-S-4Pal-RRSS[CFGGRIDRIGHYSGLGC]PSFRHGSPSSGAPPPS-NH2; thioacetal linkage between the bracketed Cys
B4: Example 7 (peptide)
peptide: B1 peptide with Y18Q
modifications: HOOC-(CH2)18-CO-(γGlu)-EKEKEKG-PEG24-EK-βAla-RSS[CFGGKIDRIGHQSGLGC]PSFRHGSPSSGAPPPS-NH2; thioacetal linkage between the bracketed Cys
B5: Example 95 (peptide)
peptide: SXRRSSCFGGRIDRIGHYSGLGCPSFRHGGKSSGAPPPS
modifications: HOOC-(CH2)18-CO-(γGlu)-EKEKEKG-PEG24-S-4Pal-RRSS[CFGGRIDRIGHYSGLGC]PSFRHGGKSSGAPPPS-NH2; thioacetal linkage between the bracketed Cys
B6: Example 9 (peptide)
peptide: {C20 diacid}-[γGlu]EKEKEKGSLRRSSCFGGRIDRIGAQSGLGCNSFR[4Pal]-NH2
modifications: disulfide 15-31
SMILES: CC[C@H](C)[C@@H]1NC(=O)[C@H](CCCNC(=N)N)NC(=O)[C@H](CC(=O)O)NC(=O)[C@H]([C@@H](C)CC)NC(=O)[C@H](CCCNC(=N)N)NC(=O)CNC(=O)CNC(=O)[C@H](Cc2ccccc2)NC(=O)[C@@H](NC(=O)[C@H](CO)NC(=O)[C@H](CO)NC(=O)[C@H](CCCNC(=N)N)NC(=O)[C@H](CCCNC(=N)N)NC(=O)[C@H](CC(C)C)NC(=O)[C@H](CO)NC(=O)CNC(=O)[C@H](CCCCN)NC(=O)[C@H](CCC(=O)O)NC(=O)[C@H](CCCCN)NC(=O)[C@H](CCC(=O)O)NC(=O)[C@H](CCCCN)NC(=O)[C@H](CCC(=O)O)NC(=O)CC[C@H](NC(=O)CCCCCCCCCCCCCCCCCCC(=O)O)C(=O)O)CSSC[C@@H](C(=O)N[C@@H](CC(N)=O)C(=O)N[C@@H](CO)C(=O)N[C@@H](Cc2ccccc2)C(=O)N[C@@H](CCCNC(=N)N)C(=O)N[C@@H](Cc2ccncc2)C(N)=O)NC(=O)CNC(=O)[C@H](CC(C)C)NC(=O)CNC(=O)[C@H](CO)NC(=O)[C@H](CCC(N)=O)NC(=O)[C@H](C)NC(=O)CNC1=O
B7: Example 13 (peptide)
peptide: {C20 diacid}-[γGlu]EKEKEKGSLRRSSCF[4Pal]GRIDRIGAQSGLGCNSFRY-NH2
modifications: disulfide 15-31
SMILES: CC[C@H](C)[C@@H]1NC(=O)[C@H](CCCNC(=N)N)NC(=O)[C@H](CC(=O)O)NC(=O)[C@H]([C@@H](C)CC)NC(=O)[C@H](CCCNC(=N)N)NC(=O)CNC(=O)[C@H](Cc2ccncc2)NC(=O)[C@H](Cc2ccccc2)NC(=O)[C@@H](NC(=O)[C@H](CO)NC(=O)[C@H](CO)NC(=O)[C@H](CCCNC(=N)N)NC(=O)[C@H](CCCNC(=N)N)NC(=O)[C@H](CC(C)C)NC(=O)[C@H](CO)NC(=O)CNC(=O)[C@H](CCCCN)NC(=O)[C@H](CCC(=O)O)NC(=O)[C@H](CCCCN)NC(=O)[C@H](CCC(=O)O)NC(=O)[C@H](CCCCN)NC(=O)[C@H](CCC(=O)O)NC(=O)CC[C@H](NC(=O)CCCCCCCCCCCCCCCCCCC(=O)O)C(=O)O)CSSC[C@@H](C(=O)N[C@@H](CC(N)=O)C(=O)N[C@@H](CO)C(=O)N[C@@H](Cc2ccccc2)C(=O)N[C@@H](CCCNC(=N)N)C(=O)N[C@@H](Cc2ccc(O)cc2)C(N)=O)NC(=O)CNC(=O)[C@H](CC(C)C)NC(=O)CNC(=O)[C@H](CO)NC(=O)[C@H](CCC(N)=O)NC(=O)[C@H](C)NC(=O)CNC1=O
B8: Example 11 (peptide)
peptide: XEKEKEKGSXRRSSCFGGRIDRIGAQSGLGCNSFRY
modifications: HOOC-(CH2)18-CO-(γGlu)-EKEKEKGS-4Pal-RRSS[CFGGRIDRIGAQSGLGC]NSFRY-NH2; disulfide linkage between the bracketed Cys
B9: Example 10 (peptide)
peptide: {C20 diacid}-[γGlu]EKEKEKGSLRRSSCFGGRIDRIGA[4Pal]SGLGCNSFRY-NH2
modifications: disulfide 15-31
SMILES: CC[C@H](C)[C@@H]1NC(=O)[C@H](CCCNC(=N)N)NC(=O)[C@H](CC(=O)O)NC(=O)[C@H]([C@@H](C)CC)NC(=O)[C@H](CCCNC(=N)N)NC(=O)CNC(=O)CNC(=O)[C@H](Cc2ccccc2)NC(=O)[C@@H](NC(=O)[C@H](CO)NC(=O)[C@H](CO)NC(=O)[C@H](CCCNC(=N)N)NC(=O)[C@H](CCCNC(=N)N)NC(=O)[C@H](CC(C)C)NC(=O)[C@H](CO)NC(=O)CNC(=O)[C@H](CCCCN)NC(=O)[C@H](CCC(=O)O)NC(=O)[C@H](CCCCN)NC(=O)[C@H](CCC(=O)O)NC(=O)[C@H](CCCCN)NC(=O)[C@H](CCC(=O)O)NC(=O)CC[C@H](NC(=O)CCCCCCCCCCCCCCCCCCC(=O)O)C(=O)O)CSSC[C@@H](C(=O)N[C@@H](CC(N)=O)C(=O)N[C@@H](CO)C(=O)N[C@@H](Cc2ccccc2)C(=O)N[C@@H](CCCNC(=N)N)C(=O)N[C@@H](Cc2ccc(O)cc2)C(N)=O)NC(=O)CNC(=O)[C@H](CC(C)C)NC(=O)CNC(=O)[C@H](CO)NC(=O)[C@H](Cc2ccncc2)NC(=O)[C@H](C)NC(=O)CNC1=O
B10: Example 12 (peptide)
peptide: {C20 diacid}-[γGlu]EKEKEKGSLRRSSCFGGRIDRIGA[4Pal]SGLGCNSFR[4Pal]-NH2
modifications: disulfide 15-31
SMILES: CC[C@H](C)[C@@H]1NC(=O)[C@H](CCCNC(=N)N)NC(=O)[C@H](CC(=O)O)NC(=O)[C@H]([C@@H](C)CC)NC(=O)[C@H](CCCNC(=N)N)NC(=O)CNC(=O)CNC(=O)[C@H](Cc2ccccc2)NC(=O)[C@@H](NC(=O)[C@H](CO)NC(=O)[C@H](CO)NC(=O)[C@H](CCCNC(=N)N)NC(=O)[C@H](CCCNC(=N)N)NC(=O)[C@H](CC(C)C)NC(=O)[C@H](CO)NC(=O)CNC(=O)[C@H](CCCCN)NC(=O)[C@H](CCC(=O)O)NC(=O)[C@H](CCCCN)NC(=O)[C@H](CCC(=O)O)NC(=O)[C@H](CCCCN)NC(=O)[C@H](CCC(=O)O)NC(=O)CC[C@H](NC(=O)CCCCCCCCCCCCCCCCCCC(=O)O)C(=O)O)CSSC[C@@H](C(=O)N[C@@H](CC(N)=O)C(=O)N[C@@H](CO)C(=O)N[C@@H](Cc2ccccc2)C(=O)N[C@@H](CCCNC(=N)N)C(=O)N[C@@H](Cc2ccncc2)C(N)=O)NC(=O)CNC(=O)[C@H](CC(C)C)NC(=O)CNC(=O)[C@H](CO)NC(=O)[C@H](Cc2ccncc2)NC(=O)[C@H](C)NC(=O)CNC1=O

target: T1, human NPRA (human, UniProt P16066 33-1061); assay: cell-based or functional assay
T1 sequence (looked up): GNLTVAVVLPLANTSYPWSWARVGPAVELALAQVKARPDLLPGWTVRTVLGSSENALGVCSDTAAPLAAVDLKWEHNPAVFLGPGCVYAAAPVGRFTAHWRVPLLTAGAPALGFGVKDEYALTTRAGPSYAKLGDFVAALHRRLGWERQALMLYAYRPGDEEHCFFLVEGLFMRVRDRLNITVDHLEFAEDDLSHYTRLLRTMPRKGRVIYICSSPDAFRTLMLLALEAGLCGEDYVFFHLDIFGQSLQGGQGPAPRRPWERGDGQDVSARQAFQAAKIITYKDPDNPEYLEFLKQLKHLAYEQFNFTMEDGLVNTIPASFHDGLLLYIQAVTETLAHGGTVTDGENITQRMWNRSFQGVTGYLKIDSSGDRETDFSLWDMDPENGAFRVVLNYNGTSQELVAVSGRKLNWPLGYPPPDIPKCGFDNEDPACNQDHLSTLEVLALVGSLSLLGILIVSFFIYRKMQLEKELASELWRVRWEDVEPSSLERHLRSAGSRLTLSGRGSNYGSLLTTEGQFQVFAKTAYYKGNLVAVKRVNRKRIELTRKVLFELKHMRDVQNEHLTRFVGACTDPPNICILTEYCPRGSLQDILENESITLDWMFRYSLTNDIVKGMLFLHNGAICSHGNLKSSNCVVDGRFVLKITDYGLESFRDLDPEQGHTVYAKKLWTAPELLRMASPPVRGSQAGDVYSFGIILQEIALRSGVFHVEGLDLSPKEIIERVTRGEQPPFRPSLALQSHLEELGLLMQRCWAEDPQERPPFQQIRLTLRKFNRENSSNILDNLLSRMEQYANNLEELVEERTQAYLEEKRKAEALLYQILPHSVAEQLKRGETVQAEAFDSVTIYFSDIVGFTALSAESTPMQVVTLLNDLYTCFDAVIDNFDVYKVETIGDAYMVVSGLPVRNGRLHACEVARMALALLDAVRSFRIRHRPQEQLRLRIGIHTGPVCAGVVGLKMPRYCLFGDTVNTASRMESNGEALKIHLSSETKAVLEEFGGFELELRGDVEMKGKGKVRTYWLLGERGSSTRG

| Binder | cGMP Assay (EC50, pM) w/BSA [pM] | cGMP Assay (EC50, pM) w/Casein [pM] |
| --- | --- | --- |
| B1 | 33300 | 1530 |
| B2 | – | 1840 |
| B3 | 12700 | 720 |
| B4 | 69600 | 5670 |
| B5 | 7030 | 771 |
| B6 | 100000 | 1870 |
| B7 | 145000 | 1920 |
| B8 | 24400 | 1020 |
| B9 | 64200 | 1310 |
| B10 | 109000 | 1520 |

target: T2, rat NPRA (rat, UniProt P18910 29-1057); assay: cell-based or functional assay
T2 sequence (looked up): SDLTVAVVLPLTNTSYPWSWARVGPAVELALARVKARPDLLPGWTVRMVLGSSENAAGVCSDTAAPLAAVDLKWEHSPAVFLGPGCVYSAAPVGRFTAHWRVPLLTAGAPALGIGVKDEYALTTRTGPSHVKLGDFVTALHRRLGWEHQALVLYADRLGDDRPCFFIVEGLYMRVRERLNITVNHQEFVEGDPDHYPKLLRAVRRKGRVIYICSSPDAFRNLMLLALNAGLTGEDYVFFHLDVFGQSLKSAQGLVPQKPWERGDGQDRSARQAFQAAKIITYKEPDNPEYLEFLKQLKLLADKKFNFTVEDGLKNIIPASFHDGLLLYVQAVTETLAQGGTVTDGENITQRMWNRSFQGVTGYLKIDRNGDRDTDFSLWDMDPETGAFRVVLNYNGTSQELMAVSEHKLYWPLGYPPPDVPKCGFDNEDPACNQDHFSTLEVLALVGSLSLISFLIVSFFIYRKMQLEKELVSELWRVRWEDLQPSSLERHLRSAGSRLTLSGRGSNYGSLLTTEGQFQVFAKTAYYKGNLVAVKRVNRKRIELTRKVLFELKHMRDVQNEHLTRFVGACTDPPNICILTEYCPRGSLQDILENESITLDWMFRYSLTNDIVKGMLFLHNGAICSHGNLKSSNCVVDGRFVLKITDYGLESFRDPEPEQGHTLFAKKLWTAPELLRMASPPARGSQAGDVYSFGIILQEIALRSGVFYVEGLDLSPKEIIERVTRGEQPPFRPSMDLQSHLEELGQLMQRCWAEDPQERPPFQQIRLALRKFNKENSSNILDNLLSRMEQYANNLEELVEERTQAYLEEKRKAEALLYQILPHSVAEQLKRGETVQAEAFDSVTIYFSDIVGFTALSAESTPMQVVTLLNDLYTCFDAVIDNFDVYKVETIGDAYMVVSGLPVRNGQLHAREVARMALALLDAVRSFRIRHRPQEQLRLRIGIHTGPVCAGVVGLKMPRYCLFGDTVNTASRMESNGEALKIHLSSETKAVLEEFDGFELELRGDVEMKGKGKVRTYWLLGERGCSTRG

| Binder | cGMP Assay (EC50, pM) w/BSA [pM] | cGMP Assay (EC50, pM) w/Casein [pM] |
| --- | --- | --- |
| B1 | 596000 | 30500 |
| B2 | – | 17900 |
| B3 | 401000 | 12200 |
| B4 | 1.17e+06 | 184000 |
| B5 | 322000 | 12300 |
| B6 | 46700 | 509 |
| B7 | 24000 | 241 |
| B8 | 24700 | 242 |
| B9 | 88400 | 501 |
| B10 | 85500 | 670 |
